Experimental data reported in patent US8013115B1, “Use of stabilised synthetic compounds in immunoassay” (Bio-Rad Pasteur, priority 1999, dated 2011).
[ ]: non-standard residue; d: D form. Hx = not defined here

B1: peptide TRP 1116 Ac: Ac-…-(TEPH)-AKK-Hx-PLELAGLG-(FAEL)-QDLCRQ-NH2 (peptide)
peptide: Ac-GSSNYRAYATEPHAKK[Hx]PLELAGLGFAELQDLCRQ-NH2
modifications: reading uncertain; also: printed as Ac-GSSNYRAYA-(TEPH)-AKK-Hx-PLELAGLG-(FAEL)-QDLCRQ-NH2

Experiments:
[1] = assay type: physicochemical
Experimental: (§1) The stability of the compounds PEP 5, PEP 9 and PEP 10 was evaluated by ELISA assay, with chemiluminescence reading (signal expressed in Relative Luminescence Units or RLU), with the aid of the automated device Access® from the company Beckman, distributed by Bio-Rad (Marnes la Coquette, France), and then compared with that of a prior art noncyclized reference biepitopic compound (TRP 1116 Ac) analysed in the same manner.

[2] = Linearity of the dilution curves / dilutability, ELISA signal (RLU) versus dilution
Experimental: as §1
Standard for acceptance of the dilutions: the ratio experimental signal/theoretical signal at a given dilution should be equal to 1.00±0.2, for the compound to be dilutable. The dilutions giving signals of less than 100 000 RLU units should not be taken into account.
Results expressed in signal units (RLU)

[3] = biological target: antibodies of the ELISA assay with chemiluminescence reading on the automated device Access (Beckman); assay: ELISA immunoassay, chemiluminescence, Access device; compound diluted 1/10 000
[4] = biological target: antibodies of the ELISA assay with chemiluminescence reading on the automated device Access (Beckman); assay: ELISA immunoassay, chemiluminescence, Access device; compound diluted 1/20 000
[5] = biological target: antibodies of the ELISA assay with chemiluminescence reading on the automated device Access (Beckman); assay: ELISA immunoassay, chemiluminescence, Access device; compound diluted 1/40 000
[6] = biological target: antibodies of the ELISA assay with chemiluminescence reading on the automated device Access (Beckman); assay: ELISA immunoassay, chemiluminescence, Access device; compound diluted 1/50 000
[7] = biological target: antibodies of the ELISA assay with chemiluminescence reading on the automated device Access (Beckman); assay: ELISA immunoassay, chemiluminescence, Access device; compound diluted 1/100 000
[8] = biological target: antibodies of the ELISA assay with chemiluminescence reading on the automated device Access (Beckman); assay: ELISA immunoassay, chemiluminescence, Access device; compound diluted 1/300 000

Row | Molecule | Stability ratio signal at DO + 24 H/signal at DO [1] | Experimental signal ([2]; dilution 1/10 000) | Experimental signal ([2]; dilution 1/20 000) | Experimental signal ([2]; dilution 1/40 000) | Experimental signal ([2]; dilution 1/50 000) | Experimental signal ([2]; dilution 1/100 000) | Experimental signal ([2]; dilution 1/300 000) | Experimental signal (RLU) [3] [RLU] | Experimental signal (RLU) [4] [RLU] | Experimental signal (RLU) [5] [RLU] | Experimental signal (RLU) [6] [RLU] | Experimental signal (RLU) [7] [RLU] | Experimental signal (RLU) [8] [RLU]
1 | Ac-GSSNYRAYA-(TEPH)-AKK-Hx-PLELAGLG-(FAEL)-QDLCRQ-NH2 (SEQ ID NO: 6) (Ac-GSSNYRAYATEPHAKK[Hx]PLELAGLGFAELQDLCRQ-NH2; not fully specified; printed as Ac-GSSNYRAYA-(TEPH)-AKK-Hx-PLELAGLG-(FAEL)-QDLCRQ-NH2; reading uncertain; also: TEPH, Hx, FAEL described as non-natural linkers) [TRP 1116 Ac] | 0.77 | 11 039 697 RLU | 3 779 387 RLU | 1 573 457 RLU | 1 125 417 RLU | 471 714 RLU | 132 054 RLU |  |  |  |  |  | 
2 | B1 |  |  |  |  |  |  |  | 1.1e+07 | 3.78e+06 | 1.57e+06 | 1.13e+06 | 472000 | 132000
